{"source": "patent US20230115257A1", "about": "(published 2023)", "binders": {"B1": {"name": "4-N22-A (antibody, V domains shown)", "VH": "QVQLQQPGTELVKPGASVKLSCKASGYTFTNYWMYWVKQRPGQGLDWIGNINPSNGGTNYNEKFKSKATLTVDKSSSTAYMQLSSLTSEDSAVYYCARETGNYWGQGTTLTVSS", "VL": "DILMTQSPSSMSVSLGDTVSISCHASQGISSNIGWLQQKPGKSFKGLIYHGTNLEDGVPSRFSGSGSGADYSLTISSLESEDFADYYCVQYAQFPYTFGGGTKLEIK"}, "B2": {"name": "3-E2-A (antibody, V domains shown)", "VH": "EVQLQQSGPELVKPGASVKISCKASGYTFTDYYMNWVKQSHGKSLEWIGDINPNNGGTSYTQKFKGKATLTVDKSSSKAYMELRSLTSEDSAVYYCARRGDGHYGGFTYWGQGTLVTVSA", "VL": "not shown"}, "B3": {"name": "8-H5-A (antibody, V domains shown)", "VH": "QVTLKESGPGILQSSQTLSLTCSLSGFSLSTSGMGVSWVRQPSGKGLEWLAHIYWDDDKRYTPSLKSRLTISTDSSRKQVFLKITSVDTADTATYYCARRDLHDYDGWFAYWGQGTLVTVSA", "VL": "DIVMTQSQKFMSTAVGDRVSVTCKASQNVGTNVAWYQQKPGQSPKALIYSASFRYSGVPDRFSGSGSGTDFTLTISNVQSEDLAEYFCQQYNSYPLTFGSGTKLEIK"}, "B4": {"name": "4-M3-A (antibody, V domains shown)", "VH": "EVQLQQSGPELVKPGDSVKISCKASGYSFTGYFMNWVMQSHGKSLEWIGRINPNNGETFYNQKFKGKATLTVDKSSDTAHMELRSLTSEDSAVYYCARGGTGTGWGQGTTLTVSS", "VL": "B1 VL with S22T, H50Y, F83L, V89I"}, "B5": {"name": "2-O12-A (antibody, V domains shown)", "VH": "B2 VH with P53S, S59T, T61D, K74R, K78T, Y104F", "VL": "not shown"}, "B6": {"name": "10-L24-A (antibody, V domains shown)", "VH": "B2 VH with P53S, S59T, T61D, K74R, K78T, Y104F", "VL": "not shown"}, "B7": {"name": "1-B11-A (antibody, V domains shown)", "VH": "QVQLQQSGPELVKPGASVKISCKASGYTFTDHYINWVKQRPGQGLEWIGWIFPGSGSTYYNEQFKGKATLTVDKSSNTAYMLLSSLTSEDSAVYFCARSGGLRLGFAYWGQGTLVTVSA", "VL": "DIQMTQTTSSLSASLGDRVTISCRASQDISNYLNWYQQKPDGTVKLLIYYTSRLHSGVPSRFSGSGSGTDYSLTISNLEQEDISTYFCQQVNTLPYTFGGGTKLEIK"}, "B8": {"name": "4-K13-A (antibody, V domains shown)", "VH": "QAYLQQSGAELVRPGASVKMSCKASGYTFTSYTVHWVKQTPRQGLEWIGAIYPGNVDTSYNQNFKGKATLTVDKSSSTAYMQLSSLTSEDSAVYFCARDGYYAMDYWGQGTSVTVSS", "VL": "not shown"}, "B9": {"name": "3-K11-A (antibody, V domains shown)", "VH": "EVQLQQSGPELVKPGASVKMSCKASGYTFTSYVMHWVKQKPGQGLEWIGYINPYNDGTEYNEKFKGKATLTSDKSSSTAYMELSSLTSEDSAVYHCAREAYRYFDVWGTGTTVTVSS", "VL": "DIQMTQSPASLSVSVGETVTITCRASENIYSNLAWYQQKQGKYPQLLVYGATNLADGVPSRFSGSGSGTQYFLKINSLQSEDFGSYYCQHFWGIPWTFGGGTKLEIK"}, "B10": {"name": "2-G20-A (antibody, V domains shown)", "VH": "EVQLQQSGPELVKPGASVKMSCKASGYTFPSYVLHWVKQKPGQGLEWIGYIYPYNDGTNYNEKFKGKATLTSDKSSSTAYMELSSLTSEDSAVYYCARGDYGDSAWFPYWGQGTLVTVSA", "VL": "DIVLTQSPASLAVSLGQRATISCRASKSVSTSGYSYMHWYQQKPGQPPKLLIYLASNLKSGVPARFSGGGSGTDFTLNIHPVEEEDAATYYCQLSRELPWTFGGGTKLEIK"}, "B11": {"name": "1-L10-A (antibody, V domains shown)", "VH": "EVKLEESGGGLVQPGGSMKLSCVASGFTFNNYWMNWVRQSPEKGLEWVAQMRLKSDNYATHYAESVKGRFTISRDDSKSSVYLQMNNLRAEDTGIYYCIEGYWTYWGQGTLVTVSA", "VL": "QIVLTQSPAIMSASLGERVTMTCTASSSVSSSYLHWYQQKPGSSPKLWIYSTSNLASGVPARFSGNGSGTSYSLTISSMEAEDAATYYCLQYHRSPPYTFGGGTKLEIK"}, "B12": {"name": "4-L4-A (antibody, V domains shown)", "VH": "B8 VH with A50G", "VL": "not shown"}, "B13": {"name": "6-O12-A (antibody, V domains shown)", "VH": "QVQLQQPGTELVKPGASVKLSCKASGYTFTSYWMHWVKQRPGQGLEWIGNINPSNGGTNYNEKFRSKATLTVDKSSSTAYMQLSSLTSEDSAVYYCARLGWFLPLGSWGQGTTLTVSS", "VL": "QIVLTQSPAIMSASLGEVITLTCSASSSVSYMHWYQQKSGTSPKLLIYSTSNLASGVPSRFSGSGSGTFYSLTISSVEAEDAADYYCHQWSGYMYTFGGGTKLEIK"}, "B14": {"name": "2-H7-A (antibody, V domains shown)", "VH": "QAYLQQSGAELVRPGASVKMSCKASGYTFTGYTMHWVKQTPRQGLEWIGAIYPENGDTSYNQKFKGKATLTVDKSSSTAYMQLSSLTSEDSAVYFCARDGYDVLYGMDYWGQGTSVTVSS", "VL": "B10 VL with K59E, G69S, L94H, E109D"}}, "note": "Substitutions are numbered along the chain they refer to. Values joined by “and” are separate entries in the source; they are usually repeats but may differ in a detail not shown here. Equal entries are not always repeated.", "data": [{"target": "T1, SARS-CoV-2 B.1.617.2 spike trimer variant (SARS-CoV-2 B.1.617.2 (Delta), UniProt P0DTC2 16-1213)", "experiment": "ELISA", "values": [{"binder": "B1", "IC50": "2.6 µg/mL and 17.5 nM"}, {"binder": "B2", "IC50": "9 µg/mL and 59.9 nM"}, {"binder": "B3", "IC50": "4.1 µg/mL and 27.4 nM"}, {"binder": "B4", "IC50": "9.3 µg/mL and 62.1 nM"}, {"binder": "B5", "IC50": "4.2 µg/mL and 28 nM"}, {"binder": "B6", "IC50": "2.9 µg/mL and 19.5 nM"}]}, {"target": "T1, SARS-CoV-2 B.1.617.2 spike trimer …", "experiment": "ELISA", "remark": "another data set of the same source", "values": [{"binder": "B1", "EC50": "0.218 nM and 0.034 µg/mL"}, {"binder": "B2", "EC50": "0.547 nM and 0.085 µg/mL"}, {"binder": "B7", "EC50": "0.12 µg/mL and 0.772 nM"}, {"binder": "B3", "EC50": "0.251 nM and 0.027 µg/mL"}, {"binder": "B4", "EC50": "0.522 nM and 0.081 µg/mL"}, {"binder": "B5", "EC50": "0.096 µg/mL and 0.625 nM"}, {"binder": "B6", "EC50": "0.063 µg/mL and 0.405 nM"}, {"binder": "B8", "EC50": "29.3 nM and 4.54 µg/mL"}]}, {"target": "T2, SARS-CoV-2 BA.2 spike trimer variant (SARS-CoV-2 Omicron BA.2, UniProt P0DTC2 16-1213)", "experiment": "ELISA", "units": {"EC50": "nM"}, "values": [{"binder": "B1", "EC50": 0.75}, {"binder": "B2", "EC50": 71.6}, {"binder": "B7", "EC50": 181}, {"binder": "B3", "EC50": 1.06}, {"binder": "B5", "EC50": 192}, {"binder": "B6", "EC50": 61.9}]}, {"target": "T3, SARS-CoV-2 Beta (B.1.351) variant prefusion stabilized spike trimer protein (UniProt P0DTC2 14-1213)", "experiment": "ELISA", "units": {"EC50": "nM"}, "values": [{"binder": "B9", "EC50": 2.87}]}, {"target": "T4, SARS-CoV-2 B.1.1.529 spike trimer variant (SARS-CoV-2 B.1.1.529 (Omicron), UniProt P0DTC2 16-1213)", "experiment": "ELISA", "units": {"EC50": "nM"}, "values": [{"binder": "B9", "EC50": 20.6}, {"binder": "B1", "EC50": 0.48}, {"binder": "B7", "EC50": 1.88}, {"binder": "B3", "EC50": 0.5}, {"binder": "B5", "EC50": 30.1}, {"binder": "B6", "EC50": 20.6}]}, {"target": "T1, SARS-CoV-2 B.1.617.2 spike trimer …", "experiment": "ELISA", "remark": "another data set of the same source", "units": {"IC50": "nM"}, "values": [{"binder": "B1", "IC50": 17.5}, {"binder": "B2", "IC50": 59.9}, {"binder": "B3", "IC50": 27.4}, {"binder": "B4", "IC50": 62.1}, {"binder": "B5", "IC50": 28}, {"binder": "B6", "IC50": 19.5}]}, {"target": "T3, SARS-CoV-2 Beta (B.1.351) variant …", "experiment": "ELISA", "remark": "another data set of the same source", "units": {"IC50": "nM"}, "values": [{"binder": "B10", "IC50": 18.6}, {"binder": "B1", "IC50": 14}, {"binder": "B3", "IC50": 16.8}, {"binder": "B4", "IC50": 10.8}, {"binder": "B5", "IC50": 84.3}, {"binder": "B11", "IC50": 10.8}, {"binder": "B12", "IC50": 5.99}, {"binder": "B13", "IC50": 7.76}, {"binder": "B14", "IC50": 10.8}]}, {"target": "T4, SARS-CoV-2 B.1.1.529 spike trimer …", "experiment": "ELISA", "remark": "another data set of the same source", "units": {"IC50": "nM"}, "values": [{"binder": "B1", "IC50": 23.4}, {"binder": "B3", "IC50": 10.1}]}, {"target": "T2, SARS-CoV-2 BA.2 spike trimer variant", "experiment": "ELISA", "remark": "another data set of the same source", "units": {"IC50": "nM"}, "values": [{"binder": "B1", "IC50": 25.8}, {"binder": "B3", "IC50": 13.8}, {"binder": "B6", "IC50": 97.3}]}, {"target": "T4, SARS-CoV-2 B.1.1.529 spike trimer …", "experiment": "ELISA", "remark": "another data set of the same source", "units": {"IC50": "nM"}, "values": [{"binder": "B1", "IC50": 23.4}, {"binder": "B3", "IC50": 10.1}]}, {"target": "T2, SARS-CoV-2 BA.2 spike trimer variant", "experiment": "ELISA", "remark": "another data set of the same source", "units": {"IC50": "nM"}, "values": [{"binder": "B1", "IC50": 25.8}, {"binder": "B3", "IC50": 13.8}, {"binder": "B6", "IC50": 97}]}]}
